We go through 1 protein from article PMC6151752, “Characterization, Function, and Transcriptional Profiling Analysis of 3-Hydroxy-3-methylglutaryl-CoA Synthase Gene (GbHMGS1) towards Stresses and Exogenous Hormone Treatments in Ginkgo biloba” (Molecules : A Journal of Synthetic Chemistry and Natural …, 2017).

Substrate in this data set: CC(=O)CC(=O)SCCNC(=O)CCNC(=O)[C@H](O)C(C)(C)COP(=O)(O)OP(=O)(O)OC[C@H]1O[C@@H](n2cnc3c(N)ncnc32)[C@H](O)[C@@H]1OP(=O)(O)O
Description: initial rate versus acetoacetyl-CoA concentration, Michaelis-Menten fit. The format is biochemical, Ginkgo biloba. The conditions noted are these: acetoacetyl-CoA varied 20-100 μM (Km lies far above the range); pH, temperature and acetyl-CoA concentration not given. From the text:
initial rate versus acetoacetyl-CoA concentration, Michaelis-Menten fit on GbHMGS1

In general, Km refers to the substrate concentration at which the rate is half of its maximum. The term Vmax denotes the rate approached at saturating substrate. One may read the kcat as the number of substrate molecules converted per active site and unit of time at saturation. Usually kcat/Km stands for the second-order rate constant that governs catalysis at low substrate concentration.

B1: GbHMGS1 (Ginkgo biloba) (protein)
chain: MASHPENVGILAMDIYFPSTCVQQDALETFDGVSKGKYTIGLGQDCMAFCMDLEDVISMSLTVVSSLLDKYGIDPKRIGRLEVGSETVIDKSKSIKTWLMQIFEECGNSEIEGVDSTNACYGGTAALLNCVNWVESRSWDGRYGLVVSTDSAVYAEGPARPTGGAAAVAMLIGPNAPIVFESKYRGTHMSHAYDFYKPNLASEYPVVDGKLSQTCYLMGLDSCYKRFCNRFEEGEGRQFSLSDADYVAFHSPYNKLVQKSFARLLFNDFSRHASSVGKDAQEKLEPYAGLSDEDSYSSRELEKVSQQVARPLYDVKVQPSTLLPKQVGNMYTASLYAAFASIIHNEHDTLEGQRVLMFSYGSGLASTMFSLKIREGQHPFTLTNIADVMDVSSKLDSRHVLSPEDFMVNMKLMETLYGAKDFISCSDHNLLRSGTFYLTQVDSMYRRFYAQKVASPDDTHEKVKLANGIIHDQL
For the protein B1, the Km is 689 ± 32.6 µM, the Vmax is 0.0371 µM/min, the kcat was 3.26 ± 0.218 s⁻¹ and the kcat/Km amounted to 4670 ± 167 M⁻¹ s⁻¹.
